Reference: the DeepSol protein solubility set

Assay: soluble on expression in E. coli; label from the status in PepcDB or PDB records

**Q.** For “MAEEFVTLKDVGMDFTLGDWEQLGLEQGDTFWDTALDNCQDLFLLDPPRPNLTSHPDGSEDLEPLAGGSPEATSPDVTETKNSPLMEDFFEEGFSQEIIEMLSKDGFWNSNFGEACIEDTWLDSLLGDPESLLRSDIATNGESPTECKSHELKRGLSPVSTVSTGEDSMVHNVSEKTLTPAKSKEYRGEFFSYSDHSQQDSVQEGEKPYQCSECGKSFSGSYRLTQHWITHTREKPTVHQECEQGFDRNASLSVYPKTHTGYKFYVCNEYGTTFSQSTYLWHQKTHTGEKPCKSQDSDHPPSHDTQPGEHQKTHTDSKSYNCNECGKAFTRIFHLTRHQKIHTRKRYECSKCQATFNLRKHLIQHQKTHAAKTTSECQECGKIFRHSSLLIEHQALHAGEEPYKCNERGKSFRHNSTLKIHQRVHSGEKPYKCSECGKAFHRHTHLNEHRRIHTGYRPHKCQECVRSFSRPSHLMRHQAIHTAEKPYSCAECKETFSDNNRLVQHQKMHTVKTPYECQECGERFICGSTLKCHESVHAREKQGFFVSGKILDQNPEQKEKCFKCNKCEKTFSCSKYLTQHERIHTRGVKPFECDQCGKAFGQSTRLIHHQRIHSRVRLYKWGEQGKAISSASLIKLQSFHTKEHPFKCNECGKTFSHSAHLSKHQLIHAGENPFKCSKCDRVFTQRNYLVQHERTHARKKPLVCNECGKTFRQSSCLSKHQRIHSGEKPYVCDYCGKAFGLSAELVRHQRIHTGEKPYVCQECGKAFTQSSCLSIHRRVHTGEKPYRCGECGKAFAQKANLTQHQRIHTGEKPYSCNVCGKAFVLSAHLNQHLRVHTQETLYQCQRCQKAFRCHSSLSRHQRVHNKQQYCL”, which “soluble on expression in E. coli” value is on record?
**A.** soluble

**Q.** For “MFIPSIYLHQQLHYCKTAILNWSRKMALSRQKFTFERLRRFTLPEGKKQTFLWDADVTTLACRATSGAKAFVFQSVYAGKTLRMTIGNINDWKIDDARAEARRLQTLIDTGIDPRIAKAVKIAEAESLQAESRKTKVTFSVAWEDYLQELRTGISAKTKRPYSTRYIADHINLSSRGGESKKRGQGPTSAGPLASLLNLPLSELTPDYIAAWLSTERQNRPTVTAHAYRLLRAFIKWSNYQKKYQGIIPGDLAQDYNVRKMVPVSASKADDCLQKEQLKSWFSAVRSLNNPIASAYLQVLLLTGARREEIASLRWSDVDFKWSSMRIKDKIEGERIIPLTPYVSELLNVLAQSPNSDVNKEGWVFRSNSKSGKIIEPRSAHNRALVLAELPHISLHGLRRSFGTLAEWVEVPTGIVAQIMGHKPSALAEKHYRRRPLDLLRKWHEKIETWILNEAGITIKNNVDMR”, which “soluble on expression in E. coli” value is on record?
**A.** soluble

**Q.** For “MPHLALLISKGAIMDRIIQSPGKYIQGADVINRLGEYLKPLAERWLVVGDKFVLGFAQSTVEKSFKDAGLVVEIAPFGGECSQNEIDRLRGIAETAQCGAILGIGGGKTLDTAKALAHFMGVPVAIAPTIASTDAPCSALSVIYTDEGEFDRYLLLPNNPNMVIVDTKIVAGAPARLLAAGIGDALATWFEARACSRSGATTMAGGKCTQAALALAELCYNTLLEEGEKAMLAAEQHVVTPALERVIEANTYLSGVGFESGGLAAAHAVHNGLTAIPDAHHYYHGEKVAFGTLTQLVLENAPVEEIETVAALSHAVGLPITLAQLDIKEDVPAKMRIVAEAACAEGETIHNMPGGATPDQVYAALLVADQYGQRFLQEWE”, which “soluble on expression in E. coli” value is on record?
**A.** not soluble

**Q.** Which “soluble on expression in E. coli” value does the source give for “GSHMETVFTEKAPKPVGPYSQAIKVGNTLYVSGQIPIDPRTNEIVKGDIKVQTRQVLDNIKEIVKAAGFSLSDVAMAFVFLKDMNMFNDFNSVYAEYFKDKPPARVTVEVSRLPKDALIEIAVICSKG” here?
**A.** soluble

**Q.** With “MGSDKIHHHHHHAEISDKVIRIGVLNDQSGVYADIAGTGSVEAARMAAEEFGGEIDGAKIEFVSADHQNKADIAANVANQWIDTGGVDAIVDIPNSSAMLAVQEIGRTKKRIVIASGGGSTDFTGPKCSPYGFHWTYDTYSLAKGTAESLVKDGGTTWYNIVVDYAFGHSLDTDTSRFITQAGGQVVGRVLHPLGTSDFSSYLLQAQGSGAKVIGVLSAGADTVNAIKQAAEFGITQGGQILAGLLIFDQTVHSLGLETAQGLRLTTGFYWDRTDATRAWSAEFLKRSTKNIPSMAHAGVYSGVRHYLAAIKAAGTDNADAVAAKMRETPVNDMFAENGTVRADGRMVHDMYLMEVKKPADSTSEWDLMRLVHVIPGEEAYRPLAEGGCPLVQ” as the sequence, how does the “soluble on expression in E. coli” value read?
**A.** not soluble

**Q.** For “PNSKLARFHASSGTTGKPTVVGYTHKDIDNWAESLARALTSVGVGKEDILQVSYGYGLFTGGLGAHYGSEKVGATVLPTSSGNTERQLELMKDLGTTSIACTPSYFLYMIETARKEGINIRNDTKLRKGFFGAEPWSEELKRRIEEESGIKAYDIYGTSELSGPLFTECDEQ”, which “soluble on expression in E. coli” value is on record?
**A.** not soluble

**Q.** With “MGRSQATAESYRDSLTIFKNYLVGELGKSISTFQFSDCTKECIYNFREYLLANGSQPSTVNVRVAAIRAYLNYASDMDISVQSVALAISQISPCLEHHHHHH” as the sequence, how does the “soluble on expression in E. coli” value read?
**A.** not soluble

**Q.** Which “soluble on expression in E. coli” value does the source give for “MQIVSVDIGSTWTKAALFTREGDALTLVNHVLTPTTTHHLAKGFFSSLNQVLNVDNALPLLNSGEVALKYSSSAKGGLAVAAMGLVPSITLETAKVTAHSAGAKIAQYYAYKLNRRDIQALEETQPDILLFTGGTDGGEESYGLNNARVLAESKLDCAIIYAGNRDIQDEVQEILGHKDLTIVDNVLPDLDHPNPVAARQAICDIFLKRIVKGKGLDVIVDKTGEEPMPTPWTVFELVKAISNVDHSWKEFMLIDMGGATTDVYSACANTLSPDTVLHGVPEPFVKRTVEGDLGMRVSAVVVGESAKELVNVNFAQQPAQLDAFYHYLRHLVAHPDYLPANAEEKYFDTVLAGLCVGYATERHAGTKKEVCTCVGNVDLQMGRDLTTVRKVVGSGGWLSRASQFDMHHWLKYRELNDDGKRILLPTEFEYYRDSRGLLPLLANVARVDPLAAARTSIQCLTL” here?
**A.** not soluble

**Q.** With “MVAQNSVVVIGASGFGRESLDVLEAMKEAGHSLEIIGVVDDNPAAINLQRLAERKIEYLGTLKEWIEGSPKSCKYVLAIGNPTIRHKLSALLDKSGFDAFTAVHPSAVIGSQVVFGSGAVVCSGAVISTNVRLGVHVHINPNVTIGHDSILEDYVSINPAATISGEVLIMEETLIGAAATVLQGLTIGNRSLVGASSCVTKDISAGKVVKGIPARLEHHHHHH” as the sequence, how does the “soluble on expression in E. coli” value read?
**A.** soluble

**Q.** With “METLTLETPEARAETRTVLHVGCGAANPAKLPGDVFPAGDWRELRLDIDPGVAPDILASITGMPMVADGSVDAVWSSHNLEHLRPHEVPLALAEFHRVLRPGGFLLATLPDLQAVALLVAQGLLEEPAYVSALGPIAPLDILYGFRPAIAEGNDFMAHRTGFTAASLARHLGAAGFAEITVQTDGRFALWARAVRPA” as the sequence, how does the “soluble on expression in E. coli” value read?
**A.** not soluble

**Q.** With “VLNHSIEVALLAGYMASELGLNADKARRGGLLHDIGKAVDQELEGSHTTIGAELARRYGEKEDIINMILSHHGEEEPMTP” as the sequence, how does the “soluble on expression in E. coli” value read?
**A.** not soluble

**Q.** Which “soluble on expression in E. coli” value does the source give for “MPSTRCAHQMSTKKKAERVDNMIAFLKSAVQAQKEKGAQAEQAPGNAMMTSKLLEIWSVPQSTITEMRLLLTLGADPTPLFKDDFGEKTLADRIDNGSVCEECAEMYERTPIQINRSKKVDGVMALCLDGGGMRGLVSVVCLLYASRRLLGDETLPNLFDWFIGTSTGSMLALSMVNKISISECFFQYWDMKSQIFLRGSTVKRLLGDQVAVQTKNIDKVLGDCFPTQTLQECPTRLTIPALDISTAPARLHVFRNYSFTKPFGAPLNEDQDVLFREAARASSAAPTYFEPFIYGNKVLVDGSFVANYPLNVLFKEYDSFSKHQQPIHLAGVLSIGTGEPALAERKYKSGKSIRAKAMNIGHLSTLILEQVVGQDLTAVEMAQDRCHAHNIPFNRLSPKGISVRIDQIDDSKLMDMIWTTLIYLTENVHEIDQLGEMIYKLKSDPTERKRRSNTVL” here?
**A.** not soluble

**Q.** Which “soluble on expression in E. coli” value does the source give for “GPGSMEPNFFNNSGLMLLCKDGSAVRAIDVLKDAEYVLMYFSAHWCPPCRTFTPMLKSFYETHHAKKKFEVVFMSSDRSEEEMMSYFRESHGDYYCLPYADARSMARVWGDTYKFKTIPTLLVFENANPRKLIARCGREMVIKDPLGNLFPWPDADAQQPAESFIFDYTRKAAIVLGISVLLYSLISRSL” here?
**A.** not soluble

**Q.** For “MRELKVVGLDADGKNIICQGAIPSEQFKLPVDDRLRAALRDDSVQPEQAQLDIEVTNVLSPKEIQARIRAGASVEQVAAASGSDIARIRRFAHPVLLERSRAAELATAAHPVLADGPAVLTMQETVAAALVARGLNPDSLTWDAWRNEDSRWTVQLAWKAGRSDNLAHFRFTPGAHGGTATAIDDTAHELINPTFNRPLRPLAPVAHLDFDEPEPAQPTLTVPSAQPVSNRRGKPAIPAWEDVLLGVRSGGRR”, which “soluble on expression in E. coli” value is on record?
**A.** soluble

**Q.** Which “soluble on expression in E. coli” value does the source give for “MSLNEFPSRPIKLVVPYPAGGTLDIVGRNIAKMAEASLGEPIVADNVPGASGVIAHSQIARAPADGYTIGMSGLSPLVLAPHQYKNLPYSPLKDLSYVACFGETPLVLNVAISLPVKTVQELVAYAKANPGKLNYGSAGIGNASYLAAALFARQAGIEISHVPYKGNAPAMIDLVGGQIPILFDPPQTTLPQAATGKVRPLAVTSSQRFPGLPTLPTIAEAGWANYEFSIWYAMVAPAGVTLPPKNVSLAEWFNASKENGNDEDSAGALHAGIQAAARATAGTTPAARPCSVREGHHHHHH” here?
**A.** not soluble

**Q.** For “MANRMILNETAWFGRGAVDALTDEVTRRGYHKALIVTDKTLVQCGVVDKVTSRMDAAGLAWEIYAGVIPNPTISVVQEGLKVFTQSGADYLIAIGGGSPQDTCKAIGIISNNPEFADVRSLEGLSPTRKPSVPIMAIPTTAGTAAEVTINYVITDEEKRRKFVCVDPHDIPQAAFIDADMMDGMPPALKAATGVDALTHAIEGYITRAAWALTDALHIKAIEIIAGALRGAVAGEKEAGEAMALGQYVAGMGFSNVGLGLVHGMAHPLGAFYNTPHGVANAILLPHVMRFNAGSTNEKFRDIARAMGVKVEGLSLEEARNAAVEAVFTLNRDVGIPLHLRDVGVRKEDIPALAQAAFDDVCTGGNPREASLADIVELYHTAW”, which “soluble on expression in E. coli” value is on record?
**A.** not soluble

**Q.** Which “soluble on expression in E. coli” value does the source give for “MAISVVDLFSIGIGPSSSHTVGPMRAALTYISEFPSSHVDITLHGSLAATGKGHCTDRAVLLGLVGWEPTIVPIDAAPSPGAPIPAKGSVNGPKGTVSYSLTFDPHPLPEHPNAVTFKGSTTRTYLSVGGGFIMTLEDFRK” here?
**A.** not soluble

**Q.** With “MAHHHHHHMSWRVSCKTALLDELFTYIAGKTDANTLQKECVLALPQLETLAKMLGFSLDDMSMYRLAWSWSCEAPLCIRKSEFVNGMNAICSGVKLSATATSSTCSASPVKSPKKEFEPILLALRNHVETLDGALRGDVTKFRHFYRFIYKWVQSPLTMERNMGQVGMSIETAVELWRMLFPHYREFKRLDDWITFCMSKKLFPHGIISRDLWEQLLEFTFVTDYSKYDVSDAWPSAMDDFVEYVKSKV” as the sequence, how does the “soluble on expression in E. coli” value read?
**A.** not soluble

**Q.** With “MSLAATIREVAALAGVAPGTVSNVLTGKKLVAEPLRKAVLDAIAQLDYRPNHLASSLRFGRTKSIGIVVPDMTNPFFSGLVRELELKAAKSGFQILLMSSYEEAAEERERIRALVSRQVDGLIISPSRDSIETSPHSAISGIPTVLVDRAFAVEGFDTVSADNEQATLMGARHLIELGHKRITFLATAPGLANMEERVSGYRKAMQDAGVSDANVVYGGLSIESCRSAIEQELRRAGRPTAVFASAYVATLGAAKAIRALDLAFPQDVSLLGFDDSDWMTVLRPYVSTIEQPLDELGHACWELLQRRMKKMDVPPVHRRIACTLRARESTREGHHHHHH” as the sequence, how does the “soluble on expression in E. coli” value read?
**A.** soluble

**Q.** For “MGSDKIHHHHHHMPNNALLQIKQDTLSLIDDLKVICTSFGLGNDGNEYKIITQCFLYKFLCDKFEFLFEQEFPNQTIQDYKDFNKEEKEEFFITLTDKRLPKLAYDDLLNYLFEKHFNDNDLHLKLDIIFNRISSNNAELFNTTSTDKTTIALFESISQYINEESKRANFTRVLLDKLKKFNFKQAFLNLQNQQGYDFFAPIFEYLLKDYNNAGGGKYAEYYTPLSIASIIAKLLINEPTRNVKIYDPSAGTGTLLMALAHQIGTDSCTLYAQDISQKSLRMLKLNLILNDLTHSLRNAIEGNTLTNPYHSKDFKGKMDYIVSNPPFKLDFSNEHAEISQNKNDFFLGVPNIPKNNKSKMPIYTLFFQHCLNMLSNKGKGAIIVPTGFISAKSGVENKIIRHLVDERLVYGVVCMPSQVFANTGTNVSIIFFQKTPSAKEVVLIDASKLGEEYTENKNKKTRLRPSDIDLILETFQNKTKKSDFCALVSFDEITEKIIL”, which “soluble on expression in E. coli” value is on record?
**A.** not soluble
